We go through one molecule from patent US20050048070A1 (published 2005).

Assay [1] concerns the target T1, K8(1-233)/K18(1-72) heterotypic complex (human, UniProt P05787 2-234; P05783 2-73).
T1 construct: Heterotypic complex of two GST fusion proteins; not shown: glutathione S-transferase (GST) fusion partner, modified pGEX-2T vector
T1 sequence 1: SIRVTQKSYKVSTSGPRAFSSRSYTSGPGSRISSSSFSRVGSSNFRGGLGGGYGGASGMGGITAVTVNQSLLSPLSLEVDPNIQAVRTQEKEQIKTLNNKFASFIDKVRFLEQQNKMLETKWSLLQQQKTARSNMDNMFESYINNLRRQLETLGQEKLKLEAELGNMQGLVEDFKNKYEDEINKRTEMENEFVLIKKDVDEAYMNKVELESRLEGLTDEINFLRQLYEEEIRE
T1 sequence 2: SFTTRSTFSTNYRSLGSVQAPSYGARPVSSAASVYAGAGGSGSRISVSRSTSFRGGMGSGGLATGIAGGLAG
In words: heterotypic association assay: blotted K18 proteins incubated with purified K8(1-233), then stained with COU-1.

For assay [2], the target named is T2, K18(1-312) GST fusion protein (human, UniProt P05783 2-313).
T2 construct: Alone, not complexed; not shown: glutathione S-transferase (GST) fusion partner, modified pGEX-2T vector
T2 sequence: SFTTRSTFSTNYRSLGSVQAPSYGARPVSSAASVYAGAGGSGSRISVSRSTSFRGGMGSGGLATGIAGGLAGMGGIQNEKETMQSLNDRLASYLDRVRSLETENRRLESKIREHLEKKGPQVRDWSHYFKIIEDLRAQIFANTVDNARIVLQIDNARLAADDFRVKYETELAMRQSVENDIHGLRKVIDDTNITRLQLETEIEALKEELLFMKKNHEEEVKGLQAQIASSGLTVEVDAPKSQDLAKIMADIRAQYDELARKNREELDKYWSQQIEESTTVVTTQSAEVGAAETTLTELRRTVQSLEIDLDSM
Kind of assay: Western blot of SDS-PAGE-separated K18 GST fusion proteins, stained with COU-1 alone. Background: A western blot detects proteins with antibodies after separation by electrophoresis.

Assay [3] has as its target T3, K18(1-385) GST fusion protein (human, UniProt P05783 2-386).
T3 construct: Alone, not complexed; not shown: glutathione S-transferase (GST) fusion partner, modified pGEX-2T vector
T3 sequence: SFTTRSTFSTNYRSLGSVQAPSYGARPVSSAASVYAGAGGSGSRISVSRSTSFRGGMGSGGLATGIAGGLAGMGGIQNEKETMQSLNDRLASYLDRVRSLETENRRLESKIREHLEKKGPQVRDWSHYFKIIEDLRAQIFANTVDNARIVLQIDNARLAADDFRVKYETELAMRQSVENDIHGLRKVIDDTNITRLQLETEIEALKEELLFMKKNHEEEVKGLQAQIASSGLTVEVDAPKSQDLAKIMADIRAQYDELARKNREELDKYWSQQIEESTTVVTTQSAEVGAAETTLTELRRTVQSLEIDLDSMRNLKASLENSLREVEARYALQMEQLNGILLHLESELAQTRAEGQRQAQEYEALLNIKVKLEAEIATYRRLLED
The assay is described as above.

For a further assay, the target named is T4, bovine serum albumin (bovine, UniProt P02769 25-607).
T4 construct: Irrelevant antigen in the ELISA; also called BSA
In words: ELISA on coated antigens (data not shown). For orientation: ELISA stands for enzyme-linked immunosorbent assay.

For the next assay, the target named is T5, ovalbumin (UniProt P01012 2-386).
T5 construct: Irrelevant antigen in the ELISA
T5 sequence (looked up): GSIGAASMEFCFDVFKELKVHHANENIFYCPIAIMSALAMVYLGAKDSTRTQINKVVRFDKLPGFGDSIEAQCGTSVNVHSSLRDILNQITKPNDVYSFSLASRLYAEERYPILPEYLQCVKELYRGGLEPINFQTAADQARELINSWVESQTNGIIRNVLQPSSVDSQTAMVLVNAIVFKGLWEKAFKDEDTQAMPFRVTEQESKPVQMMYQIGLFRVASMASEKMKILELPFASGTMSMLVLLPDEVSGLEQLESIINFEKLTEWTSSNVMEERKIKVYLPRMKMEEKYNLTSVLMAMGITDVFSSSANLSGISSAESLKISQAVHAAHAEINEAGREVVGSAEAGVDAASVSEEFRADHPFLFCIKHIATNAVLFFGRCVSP
In words: ELISA on coated antigens (data not shown).

Assay [4] has as its target T6, K8(1-85)/K18(1-72) heterotypic complex (human, UniProt P05787 2-86; P05783 2-73).
T6 construct: Heterotypic complex of two GST fusion proteins; not shown: glutathione S-transferase (GST) fusion partner, modified pGEX-2T vector
T6 chain 1: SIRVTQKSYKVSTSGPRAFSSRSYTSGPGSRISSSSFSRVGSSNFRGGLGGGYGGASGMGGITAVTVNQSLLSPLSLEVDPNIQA
T6 chain 2: T1 sequence 2
In words: heterotypic association Western blot.

Assay [5] addresses T7, N-terminally truncated K8 protein where the first 22 amino acids were missing (from colon cancer tissue) (human, UniProt P05787 24-483).
T7 construct: also called K8 starting at residue 23
T7 chain: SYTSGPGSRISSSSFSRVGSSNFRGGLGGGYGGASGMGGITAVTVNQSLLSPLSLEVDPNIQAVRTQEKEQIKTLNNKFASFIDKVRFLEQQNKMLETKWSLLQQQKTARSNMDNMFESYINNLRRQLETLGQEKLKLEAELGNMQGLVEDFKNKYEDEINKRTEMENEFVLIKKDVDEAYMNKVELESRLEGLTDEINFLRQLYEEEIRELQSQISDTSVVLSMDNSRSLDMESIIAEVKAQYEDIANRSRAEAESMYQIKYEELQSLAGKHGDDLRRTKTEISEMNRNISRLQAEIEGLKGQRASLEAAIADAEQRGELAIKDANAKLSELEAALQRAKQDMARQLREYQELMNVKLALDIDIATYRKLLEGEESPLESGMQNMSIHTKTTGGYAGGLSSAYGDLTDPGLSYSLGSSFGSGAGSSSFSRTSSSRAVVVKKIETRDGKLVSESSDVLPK
In words: Western blot of cytokeratin bands from colon cancer tissue, bands identified by N-terminal sequencing (drawn table).
Method: Protein bands were visualized with Coomassie Brilliant Blue. Separated proteins were also electroblotted onto polyvinylidene difluoride membranes (PVDF, Immobilon P, Millipore, Bedford, Mass.), at 100 Volts for 1 h in ice, using transfer buffer (10% (v/v) ethanol, 25 mM Tris, 200 mM glycine). Prior to transfer, the membrane was pre-soaked in ethanol for 2 min and the membranes and the gel were incubated in transfer buffer for 10 min. […] The membrane was washed in Western blot buffer and incubated with AP-conjugated rabbit-anti-goat IgG antibody (diluted 1/1000, Sigma), or AP-conjugated rabbit-anti-human IgM antibody (diluted 1/500, DAKO, Glostrup, Denmark) for 2 h at room temperature. Following 3 washes in PBS, the membrane was fixed with 0.2% glutaraldehyde in PBS for 15 min at room temperature and finally washed in PBS. Bound AP conjugate was visualized by NBT/BCIP (Bio-Rad, Hercules, Calif.). MCF7 or Colon 137 cells, resuspended in SDS sample buffer and sonicated, were used as antigen control. A low range protein marker (Bio-Rad) was used to indicate the molecular weight of the fragments.

T4 sequence (P02769 25-607 limits assumed): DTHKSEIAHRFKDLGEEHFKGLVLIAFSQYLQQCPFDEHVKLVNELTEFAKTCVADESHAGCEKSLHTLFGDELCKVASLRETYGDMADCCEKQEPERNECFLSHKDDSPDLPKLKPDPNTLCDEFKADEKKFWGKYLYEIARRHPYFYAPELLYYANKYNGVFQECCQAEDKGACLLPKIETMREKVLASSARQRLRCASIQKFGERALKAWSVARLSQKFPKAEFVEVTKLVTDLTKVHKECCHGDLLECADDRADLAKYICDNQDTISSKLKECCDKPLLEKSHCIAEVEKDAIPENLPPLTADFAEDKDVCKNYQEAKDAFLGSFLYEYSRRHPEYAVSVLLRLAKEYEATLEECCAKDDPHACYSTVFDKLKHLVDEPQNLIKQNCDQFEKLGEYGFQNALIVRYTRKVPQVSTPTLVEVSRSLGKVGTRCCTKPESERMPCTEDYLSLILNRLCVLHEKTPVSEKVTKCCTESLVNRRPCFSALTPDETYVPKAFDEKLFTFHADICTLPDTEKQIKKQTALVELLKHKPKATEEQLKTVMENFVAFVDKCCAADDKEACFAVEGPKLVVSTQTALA
Method for bovine serum albumin: (§1) ELISA wells (Costar) were coated overnight at 4° C. with 50 μl of antigen (1-10 μg/ml) in 0.1 M bicarbonate buffer, pH 8.6. DNA in PBS was dried on the ELISA wells at 37° C. The wells were washed twice with PBS, blocked by filling the wells with 3% BSA in PBS for 1 h at 37° C., and incubated with human Fab samples or intact human IgM antibody for 2 h at 37° C. Plates were washed 10 times with PBS-Tween and bound Fab was detected with alkaline phosphatase (AP) labeled goat anti-human IgG F(ab′)₂ (Pierce Chemical Co, Rockford, Ill.) diluted 500 fold in PBS or alkaline phosphatase-labeled rabbit anti-human κ-chain (Sigma) diluted 1000 fold in PBS. Bound antibody was visualized with para-nitrophenylphosphate (Sigma)(1 mg/ml, 1 mM MgCl₂, 10% (w/v) diethanolamine, pH 9.6) and read at 405 nm.
Method for ovalbumin: as §1

B1: human monoclonal IgM antibody COU-1 (antibody, V domains shown)
VH: GAEVKKPGASVKVSCKASDYTFSSYYMHWVRQAPGQGLEWMGIINPSGGSTSYAQKFQGRVTMTRDTSTNTVYMELSSLRSEDTAVYYCARDQVVVAATLSNYGMDVWGQGTTVTVSS
VL: ELTQSPGTLSLSPGERATLSCRASQSVSSSYLAWYQQKPGQAPRLLIYDASNRATGIPARFSGSGSGTDFTLTISSLEPEDFAVYYCQQGTNWGIAFGQGTRLDIKR
notes: Human IgM with kappa light chain, secreted by hybridoma B9165 (ECACC 87040201), purified from culture supernatant; also called HMab COU-1; HuMab COU-1
With B1, the binding result in assay [1] is “no binding (tested: 5 µg/ml COU-1 (P-0285))”; in assay [2], “no binding (tested: 5 µg/ml COU-1 (P-0279))”; in assay [3], “no binding (tested: 5 µg/ml COU-1 (P-0279))”; in the assay with bovine serum albumin, “no binding”; with ovalbumin it was “no binding”; in assay [4], “no binding (tested: COU-1 5 µg/ml)”. In addition, in assay [5], the binding result is “no binding (tested: 5 µg/ml COU-1 (P-0279))”.
